T1: 35S-methionine-labeled His6-tagged murine caspase-14
T1 sequence: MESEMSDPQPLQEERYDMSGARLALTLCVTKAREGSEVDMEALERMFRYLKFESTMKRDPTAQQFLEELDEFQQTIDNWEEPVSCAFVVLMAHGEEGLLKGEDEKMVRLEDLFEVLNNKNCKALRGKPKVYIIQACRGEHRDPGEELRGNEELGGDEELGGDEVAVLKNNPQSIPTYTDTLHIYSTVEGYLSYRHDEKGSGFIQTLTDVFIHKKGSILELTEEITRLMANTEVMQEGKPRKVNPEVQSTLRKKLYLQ

T2: radiolabeled murine caspase-3 (UniProt P70677)
T2 sequence: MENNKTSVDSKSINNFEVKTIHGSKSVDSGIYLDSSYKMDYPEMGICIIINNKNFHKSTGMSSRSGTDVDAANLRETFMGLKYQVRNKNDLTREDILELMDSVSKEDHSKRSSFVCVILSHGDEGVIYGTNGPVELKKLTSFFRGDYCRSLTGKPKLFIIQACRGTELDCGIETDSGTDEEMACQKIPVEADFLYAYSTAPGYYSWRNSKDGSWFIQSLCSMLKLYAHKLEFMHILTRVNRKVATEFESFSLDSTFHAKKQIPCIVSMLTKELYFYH

T3: 35S-methionine-labeled His6-tagged murine caspase-14
T3 chain: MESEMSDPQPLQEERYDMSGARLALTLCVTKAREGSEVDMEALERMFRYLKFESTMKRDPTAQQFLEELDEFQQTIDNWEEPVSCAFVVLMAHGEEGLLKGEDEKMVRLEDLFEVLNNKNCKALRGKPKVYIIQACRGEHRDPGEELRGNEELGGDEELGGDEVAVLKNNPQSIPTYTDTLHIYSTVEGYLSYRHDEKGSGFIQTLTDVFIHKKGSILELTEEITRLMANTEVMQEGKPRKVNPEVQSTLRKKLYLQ

B1: purified murine caspase-1 (protein)
chain: NKEDGTFPGLTGTLKFCPLEKAQKLWKENPSEIYPIMNTTTRTRLALIICNTEFQHLSPRVGAQVDLREMKLLLEDLGYTVKVKENLTALEMVKEVKEFAACPEHKTSDSTFLVFMSHGIQEGICGTTYSNEVSDILKVDTIFQMMNTLKCPSLKDKPKVIIIQACRGEKQGVVLLKDSVRDSEEDFLTDAIFEDDGIKKAHIEKDFIAFCSSTPDNVSWRHPVRGSLFIESLIKHMKEYAWSCDLEDIFRKVRFSFEQPEFRLQMPTADRVTLTKRFYLFPGH
B2: purified murine caspase-7 (protein)
chain: AKPDRSSIISSILLKKKRNASAGPVRTGRDRVPTYLYRMDFQKMGKCIIINNKNFDKATGMDVRNGTDKDAGALFKCFQNLGFEVTVHNDCSCAKMQDLLRKASEEDHSNSACFACVLLSHGEEDLIYGKDGVTPIKDLTAHFRGDRCKTLLEKPKLFFIQACRGTELDDGIQADSGPINDIDANPRNKIPVEADFLFAYSTVPGYYSWRNPGKGSWFVQALCSILNEHGKDLEIMQILTRVNDRVARHFESQSDDPRFNEKKQIPCMVSMLTKELYFSR
B3: purified murine caspase-6 (protein)
chain: GFYKSREVFDPAEQYKMDHKRRGVALIFNHERFFWHLTLPERRGTNADRDNLTRRFSDLGFEVKCFNDLRAEELLLKIHEVSTSSHIDADCFICVFLSHGEGNHVYAYDAKIEIQTLTGLFKGDKCQSLVGKPKIFIIQACRGSQHDVPVVPLDMVDHQTDKLDNVTQVDAASVYTLPAGADFLMCYSVAEGYYSHRETVNGSWYIQDLCEMLARYGSSLEFTELLTLVNRKVSQRRVDFCKDPDAIGKKQVPCFASMLTKKLHFCPKPSK
B4: purified murine caspase-2 (protein)
chain: GPPCLLVKPCTPEFYQAHYQLAYRLQSQPRGLALVLSNVHFTGEKDLEFRSGGDVDHTTLVTLFKLLGYNVHVLHDQTAQEMQEKLQNFAQLPAHRVTDSCVVALLSHGVEGGIYGVDGKLLQLQEVFRLFDNANCPSLQNKPKMFFIQACRGDETDRGVDQQDGKNHTQSPGCEESDAGKEELMKMRLPTRSDMICGYACLKGNAAMRNTKRGSWYIEALTQVFSERACDMHVADMLVKVNALIKEREGYAPGTEFHRCKEMSEYCSTLCQQLYLFPGYPPT
B5: purified murine caspase-11 (protein)
chain: PGSHHGEANLEMEEPEESLNTLKLCSPEEFTRLCREKTQEIYPIKEANGRTRKALIICNTEFKHLSLRYGANFDIIGMKGLLEDLGYDVVVKEELTAEGMESEMKDFAALSEHQTSDSTFLVLMSHGTLHGICGTMHSEKTPDVLQYDTIYQIFNNCHCPGLRDKPKVIIVQACRGGNSGEMWIRESSKPQLCRGVDLPRNMEADAVKLSHVEKDFIAFYSTTPHHLSYRDKTGGSYFITRLISCFRKHACSCHLFDIFLKVQQSFEKASIHSQMPTIDRATLTRYFYLFPGN
B6: purified murine granzyme B (protein)
chain: IIGGHEVKPHSRPYMALLSIKDQQPEAICGGFLIREDFVLTAAHCEGSIINVTLGAHNIKEQEKTQQVIPMVKCIPHPDYNPKTFSNDIMLLKLKSKAKRTRAVRPLNLPRRNVNVKPGDVCYVAGWGRMAPMGKYSNTLQEVELTVQKDRECESYFKNRYNKTNQICAGDPKTKRASFRGDSGGPLVCKKVAAGIVSYGYKDGSPPRAFTKVSSFLSWIKKTMKSS
B7: purified murine caspase-3 (protein)
chain: SGIYLDSSYKMDYPEMGICIIINNKNFHKSTGMSSRSGTDVDAANLRETFMGLKYQVRNKNDLTREDILELMDSVSKEDHSKRSSFVCVILSHGDEGVIYGTNGPVELKKLTSFFRGDYCRSLTGKPKLFIIQACRGTELDCGIETDSGTDEEMACQKIPVEADFLYAYSTAPGYYSWRNSKDGSWFIQSLCSMLKLYAHKLEFMHILTRVNRKVATEFESFSLDSTFHAKKQIPCIVSMLTKELYFYH

Test system: T1, 35S-methionine-labeled His6-tagged murine caspase-14

| Molecule | in vitro cleavage of 35S-methionine-labeled His6-tagged murine caspase-14, SDS-PAGE and autoradiography |
| --- | --- |
| murine caspase-8 (prodomain-deleted, lysate of E. coli expressing pLT-DpromCASP-8) | murine caspase-8 cleaved this 35.5 kDa murine caspase-14 weakly into 24 kDa (p18) and 11 kDa (p11) fragments |

Molecular target: T2, radiolabeled murine caspase-3

| Molecule | efficiency of proteolysis by serial 1:5 dilution of caspase-8 lysate, caspase-3 against caspase-14 as substrate |
| --- | --- |
| murine caspase-8 (prodomain-deleted, lysate of E. coli expressing pLT-DpromCASP-8) | proteolytic activity of caspase-8 was at least 1000 times more efficient on caspase-3 than on murine caspase-14 |

Molecular target: T3, 35S-methionine-labeled His6-tagged …

| Molecule | in vitro cleavage of radiolabeled caspase-14 |
| --- | --- |
| B1 | none of the active enzyme preparations were able to cleave caspase-14 |
| B2 | none of the active enzyme preparations were able to cleave caspase-14 |
| B3 | none of the active enzyme preparations were able to cleave caspase-14 |
| B4 | none of the active enzyme preparations were able to cleave caspase-14 |
| B5 | none of the active enzyme preparations were able to cleave caspase-14 |
| B6 | none of the active enzyme preparations were able to cleave caspase-14 |
| B7 | none of the active enzyme preparations were able to cleave caspase-14 |
